B1: Adapter protein MecA 1 (Bacillus subtilis), P37958 (parent)
chain: MEIERINEHTVKFYMSYGDIEDRGFDREEIWYNRERSEELFWEVMDEVHEEEEFAVEGPLWIQVQALDKGLEIIVTKAQLSKDGQKLELPIPEDKKQEPASEDLDALLDDFQKEEQAVNQEEKEQKLQFVLRFGDFEDVISLSKLNVNGSKTTLYSFENRYYLYVDFCNMTDEEVENQLSILLEYATESSISIHRLEEYGKLIISEHALETIKKHFAS
partner: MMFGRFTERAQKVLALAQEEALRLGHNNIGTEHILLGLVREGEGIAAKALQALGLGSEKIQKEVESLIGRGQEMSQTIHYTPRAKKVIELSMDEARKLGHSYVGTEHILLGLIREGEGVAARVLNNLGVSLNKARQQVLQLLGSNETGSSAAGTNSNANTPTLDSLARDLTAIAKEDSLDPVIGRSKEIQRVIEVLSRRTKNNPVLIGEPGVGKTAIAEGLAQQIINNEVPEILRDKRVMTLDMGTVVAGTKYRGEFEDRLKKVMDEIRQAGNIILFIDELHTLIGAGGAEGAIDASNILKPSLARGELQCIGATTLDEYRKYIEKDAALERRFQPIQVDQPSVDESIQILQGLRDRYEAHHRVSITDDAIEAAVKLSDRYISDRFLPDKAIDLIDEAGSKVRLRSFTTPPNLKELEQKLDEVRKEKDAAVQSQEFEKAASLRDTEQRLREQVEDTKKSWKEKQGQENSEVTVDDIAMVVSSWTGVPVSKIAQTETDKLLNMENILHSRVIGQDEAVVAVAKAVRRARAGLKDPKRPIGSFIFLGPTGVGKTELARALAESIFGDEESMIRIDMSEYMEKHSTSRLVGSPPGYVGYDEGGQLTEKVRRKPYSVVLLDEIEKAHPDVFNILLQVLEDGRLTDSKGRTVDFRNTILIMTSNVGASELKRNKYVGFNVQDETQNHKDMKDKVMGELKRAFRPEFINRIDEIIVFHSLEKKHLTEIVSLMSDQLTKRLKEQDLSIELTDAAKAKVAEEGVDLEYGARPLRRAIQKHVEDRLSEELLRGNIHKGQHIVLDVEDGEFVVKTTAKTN

Variants of: B1
Conditions: with clpc_bacsu clpC

Row | Variant | effect of a mutation on the interaction
1 | E184R | disrupting interaction

— IntAct's records for PubMed 21368759
